Data published in publication PMC4829420, “The innate immune sensor IFI16 recognizes foreign DNA in the nucleus by scanning along the duplex” (eLife, 2015).

Target: the molecule itself
Experiment: single-molecule fluorescence imaging (TIRF) with intensity analysis; Cy5-labelled IFI16 (3 to 5 nM) supplied under constant flow (20 ul/min) to single-biotinylated lambda dsDNA anchored on a coverslip; number of molecules per cluster from particle intensity against single molecules at 1 nM; 40 mM HEPES pH 7.4, 160 mM KCl, 1 mM EDTA, 2 mM DTT, 10% glycerol, 0.1% Triton-X100, 250 ug/ml BSA; room temperature

B1: Human full-length IFI16 (interferon-inducible protein 16) (natural protein, UniProt Q16666 1-785, looked up)
chain: MGKKYKNIVLLKGLEVINDYHFRMVKSLLSNDLKLNLKMREEYDKIQIADLMEEKFRGDAGLGKLIKIFEDIPTLEDLAETLKKEKLKVKGPALSRKRKKEVDATSPAPSTSSTVKTEGAEATPGAQKRKKSTKEKAGPKGSKVSEEQTQPPSPAGAGMSTAMGRSPSPKTSLSAPPNSSSTENPKTVAKCQVTPRRNVLQKRPVIVKVLSTTKPFEYETPEMEKKIMFHATVATQTQFFHVKVLNTSLKEKFNGKKIIIISDYLEYDSLLEVNEESTVSEAGPNQTFEVPNKIINRAKETLKIDILHKQASGNIVYGVFMLHKKTVNQKTTIYEIQDDRGKMDVVGTGQCHNIPCEEGDKLQLFCFRLRKKNQMSKLISEMHSFIQIKKKTNPRNNDPKSMKLPQEQRQLPYPSEASTTFPESHLRTPQMPPTTPSSSFFTKKSEDTISKMNDFMRMQILKEGSHFPGPFMTSIGPAESHPHTPQMPPSTPSSSFLTTKSEDTISKMNDFMRMQILKEGSHFPGPFMTSIGPAESHPHTPQMPPSTPSSSFLTTLKPRLKTEPEEVSIEDSAQSDLKEVMVLNATESFVYEPKEQKKMFHATVATENEVFRVKVFNIDLKEKFTPKKIIAIANYVCRNGFLEVYPFTLVADVNADRNMEIPKGLIRSASVTPKINQLCSQTKGSFVNGVFEVHKKNVRGEFTYYEIQDNTGKMEVVVHGRLTTINCEEGDKLKLTCFELAPKSGNTGELRSVIHSHIKVIKTRKNKKDILNPDSSMETSPDFFF
modifications: DyLight-550, DyLight-650 or Cy5 fluorophore incorporated by maleimide chemistry; label to protein ratio ~1:1
notes: interferon-inducible protein 16 (IFI16), human, full length; FRET assays mixed DyLight-550 and DyLight-650 labelled protein 1:1; microscopy used Cy5-labelled protein; also called IFI16-550; IFI16-650; source: E. coli T7 express cells (NEB), as described in Morrone et al., 2014
- stoichiometry N: ≥ 8 protomers per cluster
